{"source": "patent EP1876240B1", "key": {"[1]": {"target": "human GPVI extracellular region-human Fc fusion protein (hGPVI-hFc) (human)", "sequence (chain, as listed by the source limits assumed)": "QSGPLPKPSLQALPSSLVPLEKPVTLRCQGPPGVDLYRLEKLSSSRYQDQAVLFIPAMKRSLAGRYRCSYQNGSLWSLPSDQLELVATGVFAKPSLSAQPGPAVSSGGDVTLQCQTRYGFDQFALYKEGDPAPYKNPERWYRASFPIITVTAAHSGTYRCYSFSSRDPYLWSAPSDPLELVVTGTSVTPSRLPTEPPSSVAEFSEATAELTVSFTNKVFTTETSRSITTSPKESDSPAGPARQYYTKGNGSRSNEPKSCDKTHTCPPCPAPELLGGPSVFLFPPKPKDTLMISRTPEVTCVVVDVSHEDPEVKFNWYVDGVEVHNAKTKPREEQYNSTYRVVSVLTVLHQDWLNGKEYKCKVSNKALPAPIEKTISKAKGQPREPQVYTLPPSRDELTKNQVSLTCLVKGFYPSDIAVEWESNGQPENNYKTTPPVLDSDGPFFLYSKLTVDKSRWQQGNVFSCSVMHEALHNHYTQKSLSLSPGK", "assay": "SPR (BIACORE 3000), hGPVI-hFc on CM5 chip, 0-800 nM, 1:1 binding fit"}, "[2]": {"target": "rat GPVI-human Fc (rGPVI-hFc) (rat; mouse)", "assay": "ELISA on immobilized antigen; control"}, "[3]": {"target": "human GPVI extracellular region-human Fc fusion protein (hGPVI-hFc) (human)", "assay": "SPR (BIACORE3000) as in Example 5"}, "[4]": {"target": "human GPVI extracellular region-human Fc fusion protein (hGPVI-hFc) (human)", "assay": "ELISA on immobilised hGPVI-hFc; +++ absorbance more than 2.0"}, "[5]": {"target": "human GPVI extracellular region-human Fc fusion protein (hGPVI-hFc) (human)", "assay": "ELISA on immobilised hGPVI-hFc; ++ absorbance 1.0 to 2.0"}, "[6]": {"target": "human GPVI extracellular region-human Fc fusion protein (hGPVI-hFc) (human)", "assay": "ELISA on immobilised hGPVI-hFc; + absorbance 0.5 to 1.0"}}, "data": [{"binder": "F1232-37-2 Fab (Fab, V domains shown) VH: VQLQQSGPELVRPGESVKISCKGSGYTFTDYAIHWVKLSHAKSLEWIGVISIYYDDTNYNQKFKGKATMTVDKSSSTAYLELARLTSEDSAIYYCARRRDSSGPYAMDYWGQGTSVTVSS VL: DIVLTQSPASLAVSLGQRATISCRASESVDSYGNSFMHWYQQKPGQPPKLLIYRASNLESGIPARFSGSGSRTDFTLTINPVEADDVATYYCQQSNEDPYTFGGGTKLEIKR", "values": [{"measurement": "dissociation constant relative to whole antibody (defined as one) (relative to KD of whole F1232-37-2)", "setting": "[1]", "result": 0.6}]}, {"binder": "F1232-37-2 (antibody, V domains shown) VH: VQLQQSGPELVRPGESVKISCKGSGYTFTDYAIHWVKLSHAKSLEWIGVISIYYDDTNYNQKFKGKATMTVDKSSSTAYLELARLTSEDSAIYYCARRRDSSGPYAMDYWGQGTSVTVSS VL: DIVLTQSPASLAVSLGQRATISCRASESVDSYGNSFMHWYQQKPGQPPKLLIYRASNLESGIPARFSGSGSRTDFTLTINPVEADDVATYYCQQSNEDPYTFGGGTKLEIKR", "values": [{"measurement": "absorbance (ELISA)", "setting": "[2]", "result": 0.137}]}, {"binder": "F1249-18-2 (antibody, V domains shown) VH: QVQLQQPGAELVKPGASVKLSCKASGYTFTSYWMHWLKQRPGQGLEWIGMIHPNSDITNYNEKFKNKATLTVDKSSSTAYMQLSSLTSEDSAVYYCARSGDYYAMDYWGQGTSVTVSS VL: SIVMTQTPKFLLVSAGDRVTITCKASQSVSNDVAWYQQKPGQSPKLLIYYASNRYTGVPDRFTGSGYGTDFTFTISTVQAEDLAVYFCQQDYSSPPTFGGGTKLEIKR", "values": [{"measurement": "KD (Relative value) against F1232-37-2 (relative to KD of F1232-37-2)", "setting": "[3]", "result": 0.00103}, {"measurement": "absorbance", "setting": "[4]", "result": "> 2", "unit": "od"}]}, {"binder": "F1245-7-1 (antibody, V domains shown) VH: QVQLQQPGAELVKPGASVKLSCKASGYTFTSYWMHWVKQRPGQGLEWIGMIHPNSGSTNYNEKFKSKATLTVDKSSSTAYMQLSSLTSEDSAVYYCASPVTAVVEYYFDYWGQGTTLTVSS VL: SIVMTQTPKFLLVSAGDRVTITCKASQSVSNDVAWYQQKPGQSPKLLIYYASNRYTGVPDRFTGSGYGTDFTFTISTVQAEDLAVYFCQQDYSSLTFGSGTKLEIKR", "values": [{"measurement": "absorbance", "setting": "[5]", "result": "1 to 2", "unit": "od"}, {"measurement": "KD (Relative value) against F1232-37-2 (relative to KD of F1232-37-2)", "setting": "[3]", "result": 0.00293}]}, {"binder": "F1246-1-1 (antibody, V domains shown) VH: EVQLVESGGDLVKPGGSLKLSCAASGFTFSSYGMSWVRQTPDKRLEWVATISNGGTYTYYPDSVKGRFTISRDNAKNTLYLQMSSLKSDDTAMYYCGRLRDYYAMDYWGQGTSVTVSS VL: DIVLTQSPASLAVSLGQRATISCRASESVDSYGNSFMHWYQQKPGQPPKLLIYRASNLESGIPARFSGSGSRTDFTLTINPVEADDVATYYCQQSNEDPWTFGGGTKLEIKR", "values": [{"measurement": "absorbance", "setting": "[5]", "result": "1 to 2", "unit": "od"}, {"measurement": "KD (Relative value) against F1232-37-2 (relative to KD of F1232-37-2)", "setting": "[3]", "result": 0.884}]}, {"binder": "F1249-5-1 (antibody, V domains shown) VH: QVQLQQPGAELVKPGASVKLSCKASGYTFTSYWMHWLKQRPGQGLEWIGMIHPNSDITNYNEKFKNKATLTVAKSSSTAYMQLSSLTSEDSAVYYCARLGDYYAMDYWGQGTSVTVSS VL: SIVMTQTPKFLLVSAGDRVTITCKASQSVSNDVTWYQQKPGQSPKLLIYYASNRYTGVPDRFTGSGYGTDFTFTISTVQAEDLAVYFCQQDYSSPPTFGGGTKLEIKR", "values": [{"measurement": "absorbance", "setting": "[5]", "result": "1 to 2", "unit": "od"}, {"measurement": "KD (Relative value) against F1232-37-2 (relative to KD of F1232-37-2)", "setting": "[3]", "result": 0.00285}]}, {"binder": "F1249-20-1 (antibody, V domains shown) VH: QVQLQQSGAELVRPGVSVKISCKGSGYTFTDYAMHWVKQSHAKSLEWIGVISTYYGDTSYNQKFKGKATMTVDKSSSTAYMELARLTSEDSAIYYCARAEDYDPWFAYWGQGTLVTVSA VL: DIVLTQSPASLAVSLGQRATISCRASESVDSYGNSFMYWYQQKPGQPPKLLIYRASNLESGIPARFSGSGSRTDFTLTINPVEADDVATYYCQQSDEDPLTFGAGTKLELKR", "values": [{"measurement": "KD (Relative value) against F1232-37-2 (relative to KD of F1232-37-2)", "setting": "[3]", "result": 0.00205}, {"measurement": "absorbance", "setting": "[4]", "result": "> 2", "unit": "od"}]}, {"binder": "F1249-24-1 (antibody, V domains shown) VH: QVQLQQSGAELVRPGVSVKISCKGSGYTFTDYAMHWVKQSHAKSLEWIGVISTYYGDTSYNQKFKGKATMTVDKSSSTAYMELARLTSEDSAIYYCARAEDYDPWFAYWGQGTLVTVSA VL: DIVLTQSPASLAVSLGQRATISCRASESVDSYGNSFMHWYQQKPGQPPKLLIYRASNLESGIPARFSGSGSRTDFTLTINPVEADDVATYYCQQSDEDPLTFGAGTKLELKR", "values": [{"measurement": "KD (Relative value) against F1232-37-2 (relative to KD of F1232-37-2)", "setting": "[3]", "result": 0.00821}, {"measurement": "absorbance", "setting": "[4]", "result": "> 2", "unit": "od"}]}, {"binder": "F1249-30-1 (antibody, V domains shown) VH: QVQLQQSGAELVRPGVSVKISCKGSGYTFTDYAMHWVKQSHAKSLEWIGVISTYYGDTSYNQKFKGKAAMTVDKSSSTAYMELARLTSDDSAIYYCARAEDYDPWFAYWGQGTLVTVSA VL: DIVLTQSPASLAVSLGQRATISCRASESVDSYGNSFMHWYQQKPGQPPKLLIYRASNLESGIPARFSGSGSRTDFTLTINPVEADDVATYYCQQSDEDPLTFGAGTKLELKR", "values": [{"measurement": "KD (Relative value) against F1232-37-2 (relative to KD of F1232-37-2)", "setting": "[3]", "result": 0.347}, {"measurement": "absorbance", "setting": "[4]", "result": "> 2", "unit": "od"}]}, {"binder": "F1245-5-1 (antibody, V domains shown) VH: QVQLQQPGAELVKPGASVKLSCKASGYTFISYWMHWVKQRPGQGLEWIGMIHPNSGSTHYNEKFKSKATLTVDKSSSTAYMQLSSLTSEDSAVYYCARGGVTPVAYWGQGTLVTVSA VL: SIVMTQTPKFLLVSAGDRVTITCKASQSVSNDVAWYQQKPGQSPKLLIYYASNRYTGVPDRFTGSGYGTDFTFTISTVQAEDLAVYFCQQDYSSPWTFGGGTKLEIKR", "values": [{"measurement": "absorbance", "setting": "[5]", "result": "1 to 2", "unit": "od"}, {"measurement": "KD (Relative value) against F1232-37-2 (relative to KD of F1232-37-2)", "setting": "[3]", "result": 1.43}]}, {"binder": "F1245-6-2 (antibody, V domains shown) VH: QVQLQQPGAELVKPGASVKLSCKASGYTFTSYWMHWVKQRPGQGLEWIGMIHPNSGSTNYNEKFKSKATLTVDKSSSTAYMQLSSLTSEDSAVYYCARGGVTPVAYWGQGTLVTVSA VL: SIVMTQTPKFLLVSAGDRVTITCKASQSVSNDVAWYQQKPGQSPKLLIYYASNRYTGVPYRFTGSGYGTDFTFTISTVQAEDLAVYFCQQDYSSPWTFGGGTKLEIK", "values": [{"measurement": "absorbance", "setting": "[5]", "result": "1 to 2", "unit": "od"}, {"measurement": "KD (Relative value) against F1232-37-2 (relative to KD of F1232-37-2)", "setting": "[3]", "result": 0.122}]}, {"binder": "F1245-4-1 (antibody, V domains shown) VH: QVQLQQPGAELVKPGASVKLSCKASGCTFTSYWMHWVKQRPGQGLEWIGMIHPNSDNTNYNEKFKSKATLTVDKSSSTAYMHLSSLTSEDSAVYYCATHYYDYVDYWGQGTTLTVSS VL: NIVMTQTPKFLLVSAGDRVTITCKASQSVSNDVAWYQQKPGQSPKLLIYYASNRYTGVPDRFTGSGYGTDFTFTISTVQAEDLAVYFCQQDYSSPWTFGGGTKLEIKR", "values": [{"measurement": "KD (Relative value) against F1232-37-2 (relative to KD of F1232-37-2)", "setting": "[3]", "result": 0.00427}, {"measurement": "absorbance", "setting": "[4]", "result": "> 2", "unit": "od"}]}, {"binder": "F1251-1-1 (antibody, V domains shown) VH: QVNLLQSGAALVKPGASVKLSCKASGYTFTDYYIHWVKQSHGKSLEWIGYINPNSGYTNYNEKFKSKATLTVDKSTNTAYMELSRLTSEDSATYYCTRCNSGYGDWFAYWGQGTLLTVSS VL: DIQMTQSPPVLSASVGDRVTLSCKASQNINKNLDWYQQKHGEAPKLLIYYTNNLQTDIPSRFSGSGSGTDYTLTISSLQPEDVATFYCYQYNSGPGTFGAGTKLELKR", "values": [{"measurement": "absorbance", "setting": "[6]", "result": "0.5 to 1", "unit": "od"}, {"measurement": "KD (Relative value) against F1232-37-2 (relative to KD of F1232-37-2)", "setting": "[3]", "result": 7.9}]}, {"binder": "F1257-3-1 (antibody, V domains shown) VH: QVTLKESGPGMLQPSKTLSLTCSFSGFSLSTSGMVVSWIRQPSGKSLEWLAAIDWDGDKYYNPSLKSRLTVSKDTSNTQVFLKISSVDIADTATYYCARTPYYGYKEAYYFDYWGQGVKVTVSS VL: DIQMTQSPASLSASLEEIVTITCKASRAIDDYLSWYQQKPGKSPQLLIYDATSLADGVPSRFSGSRSGTQYSLKISRPQVDDSGIYYCLQSYSTPWTFGGGTKLDLKR", "values": [{"measurement": "KD (Relative value) against F1232-37-2 (relative to KD of F1232-37-2)", "setting": "[3]", "result": 0.00298}, {"measurement": "absorbance", "setting": "[4]", "result": "> 2", "unit": "od"}]}]}
